Source: publication PMC11257539 (bioRxiv, 2024)
Non-standard residues stand in square brackets, D forms with d. No end group written: not given here. pS = N[C@@H](COP(=O)(O)O)C(=O)O

Experiments:
[1] = target: T1, ESCPE-1 complex (SNX2/SNX6 heterodimer) (human, UniProt O60749;Q9UNH7); experiment: co-sedimentation
T1 sequence 1: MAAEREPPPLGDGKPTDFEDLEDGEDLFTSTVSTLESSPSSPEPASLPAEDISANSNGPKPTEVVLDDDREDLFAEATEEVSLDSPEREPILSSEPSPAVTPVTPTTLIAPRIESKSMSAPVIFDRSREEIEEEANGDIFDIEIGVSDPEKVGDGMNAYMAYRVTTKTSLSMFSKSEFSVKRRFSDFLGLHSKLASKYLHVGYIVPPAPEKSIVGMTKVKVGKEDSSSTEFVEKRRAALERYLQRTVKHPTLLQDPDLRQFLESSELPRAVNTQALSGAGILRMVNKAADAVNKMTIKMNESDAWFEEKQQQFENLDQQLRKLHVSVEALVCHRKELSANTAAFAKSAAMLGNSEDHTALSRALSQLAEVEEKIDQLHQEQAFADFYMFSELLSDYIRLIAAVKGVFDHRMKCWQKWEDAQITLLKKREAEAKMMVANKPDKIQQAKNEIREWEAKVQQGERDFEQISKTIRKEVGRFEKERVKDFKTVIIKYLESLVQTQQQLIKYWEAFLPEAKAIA
T1 sequence 2: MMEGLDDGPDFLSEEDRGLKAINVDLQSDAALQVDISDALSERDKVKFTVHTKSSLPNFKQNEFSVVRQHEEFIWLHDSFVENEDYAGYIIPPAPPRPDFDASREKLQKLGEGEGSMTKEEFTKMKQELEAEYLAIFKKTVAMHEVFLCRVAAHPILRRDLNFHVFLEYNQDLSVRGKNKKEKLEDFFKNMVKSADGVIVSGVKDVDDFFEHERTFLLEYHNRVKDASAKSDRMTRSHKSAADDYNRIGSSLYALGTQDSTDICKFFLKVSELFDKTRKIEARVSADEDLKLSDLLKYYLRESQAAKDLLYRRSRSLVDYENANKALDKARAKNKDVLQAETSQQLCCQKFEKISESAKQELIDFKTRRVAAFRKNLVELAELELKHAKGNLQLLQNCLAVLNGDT

[2] = target: SNX27 full-length (purified, as analyte in BLI and in liposome pelleting) (human, UniProt Q96L92 1-541); experiment: co-sedimentation
[3] = target: SNX27 PDZ domain (purified, BLI analyte and ITC cell) (human, UniProt Q96L92 43-136); experiment: ITC

SNVSYKYSKVNKEEETDENETEWLMEEIQ [CI-MPR cargo motif (residues 2347-2375)]: binds [1].

YTVLHRGHHQELEKLPIHNDPESLESCF [His-tagged PDZbm cargo: C-terminal cytosolic tail of 5-HT4(a)R (residues 360-388)]: binds [2].

E[pS]LESCF [PDZbm cargo peptide 5-HT4(a)R-pS-5 (EpSLESCF)] was tested, and the Kd [3] was 1100 nM, the dH [3] was -15.2 kcal/mol and the “stoichiometry N” value [3] was 1.1.
